Results reported in patent US20050227296A1, “Method for indentifying integrin antagonists” (The General Hospital Corporation, a Massachusetts …, priority 1988, published 2005).

How the values were obtained:
[1] = target: T1, fibrinogen (Homo sapiens, UniProt P02671+P02675+P02679); assay: A domain binding to fibrinogen
T1 sequence (P02671 20-629 limits assumed): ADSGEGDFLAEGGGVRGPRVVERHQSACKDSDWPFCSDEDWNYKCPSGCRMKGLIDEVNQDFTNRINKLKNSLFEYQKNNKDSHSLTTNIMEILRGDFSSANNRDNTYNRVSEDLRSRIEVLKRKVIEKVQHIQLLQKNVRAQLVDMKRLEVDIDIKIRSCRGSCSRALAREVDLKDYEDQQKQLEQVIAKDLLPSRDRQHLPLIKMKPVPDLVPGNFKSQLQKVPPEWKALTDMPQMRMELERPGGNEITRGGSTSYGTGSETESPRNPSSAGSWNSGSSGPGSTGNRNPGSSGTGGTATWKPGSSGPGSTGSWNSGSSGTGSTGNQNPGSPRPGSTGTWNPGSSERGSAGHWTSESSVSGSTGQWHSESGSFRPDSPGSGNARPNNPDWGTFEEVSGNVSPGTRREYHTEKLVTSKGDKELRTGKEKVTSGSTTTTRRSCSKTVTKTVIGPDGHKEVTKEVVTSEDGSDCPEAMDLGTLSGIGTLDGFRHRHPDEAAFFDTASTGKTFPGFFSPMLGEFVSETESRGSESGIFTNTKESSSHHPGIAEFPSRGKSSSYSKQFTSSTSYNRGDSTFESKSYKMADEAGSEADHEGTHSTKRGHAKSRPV
T1 sequence (P02675 31-491): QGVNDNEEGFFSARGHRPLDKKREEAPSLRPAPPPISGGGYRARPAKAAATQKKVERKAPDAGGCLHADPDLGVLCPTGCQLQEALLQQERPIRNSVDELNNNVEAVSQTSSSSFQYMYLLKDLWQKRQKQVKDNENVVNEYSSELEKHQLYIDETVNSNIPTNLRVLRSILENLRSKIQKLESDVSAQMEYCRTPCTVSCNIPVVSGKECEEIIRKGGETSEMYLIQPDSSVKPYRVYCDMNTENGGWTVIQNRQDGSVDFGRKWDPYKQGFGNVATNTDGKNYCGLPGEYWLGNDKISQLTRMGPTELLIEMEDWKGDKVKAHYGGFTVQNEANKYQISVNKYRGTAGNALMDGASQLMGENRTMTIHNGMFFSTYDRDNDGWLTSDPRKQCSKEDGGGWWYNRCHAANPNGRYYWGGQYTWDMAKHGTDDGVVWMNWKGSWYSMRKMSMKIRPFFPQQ
T1 sequence (P02679 27-453): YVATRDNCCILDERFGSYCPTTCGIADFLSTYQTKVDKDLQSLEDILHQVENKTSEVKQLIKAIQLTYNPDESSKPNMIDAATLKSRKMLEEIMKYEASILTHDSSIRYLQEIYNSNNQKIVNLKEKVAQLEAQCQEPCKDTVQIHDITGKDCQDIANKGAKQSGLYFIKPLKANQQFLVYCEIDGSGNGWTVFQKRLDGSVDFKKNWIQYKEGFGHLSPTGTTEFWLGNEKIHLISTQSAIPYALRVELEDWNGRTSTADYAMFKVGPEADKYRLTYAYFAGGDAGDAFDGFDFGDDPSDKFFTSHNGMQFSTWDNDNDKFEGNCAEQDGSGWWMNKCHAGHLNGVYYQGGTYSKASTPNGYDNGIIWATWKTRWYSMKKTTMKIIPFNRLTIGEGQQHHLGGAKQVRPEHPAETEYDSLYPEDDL

[2] = target: T2, biotinylated NIF binding to immobilized r11bA (Homo sapiens, UniProt P11215); assay: Inhibition of biotinylated NIF binding to immobilized r11bA
T2 construct: recombinant CD11b A domain (rCD11bA) and recombinant CD11a A domain (r11aA) were expressed as GST fusion proteins; GST (N); made in house; host or cells: Escherichia coli
T2 sequence (P11215 150-328 limits assumed): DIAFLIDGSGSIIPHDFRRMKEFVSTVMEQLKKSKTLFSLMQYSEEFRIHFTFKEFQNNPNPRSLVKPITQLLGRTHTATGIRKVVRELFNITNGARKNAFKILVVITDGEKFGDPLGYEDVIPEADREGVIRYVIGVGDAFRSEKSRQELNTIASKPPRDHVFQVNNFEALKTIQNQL
Protocol: Immobilization of Recombinant Proteins and Polypeptide: Purified rA-domain preparations (1 μg/well), soluble CD54, human fibrinogen (Sigma Chemical Co., St. Loius, Mo.), gelatin (BioRad-Laboratories) or BSA (Calbiochem-Behring Corp.) (each at 10 μg/well) or selected A-domain-derived peptides (10 μg) were added to Immulon-2 96-well microtiter plates (Dynatech Labs, Chantilly, Va.) overnight. Quantitation of adsorbed wild-type and mutant A-domain and synthetic peptides was done using the mAb 44 in an ELISA, and the BCA kit (from Pierce Chemical Co., Rockford, Ill.), respectively. […]
Biotinylation of recombinant NIP and Measurement of Binding to Immobilized Peptides: Recombinant NIP was labeled with sulfo-NHS-biotin as described by the manufacturer (Pierce Chemical Co.). […] Wells were then washed, incubated with alkaline phosphatase-coupled avidin, washed again, developed with substrate and quantified colormetrically using a microplate reader. […] In experiments where the effects of divalent cations on biotinylated rNIF binding to immobilized rCD11b A-domain were measured, VBSG^−− buffer (veronal-buffered saline, pH=7.4, containing 0.1% gelatin) containing 1 mM of Ca^2+, Mg^2+, Mn^2+, EDTA, EGTA, EGTA plus 1 mM MgCl2, or 1 mM MnCl2. […]

Substance: r11bA: recombinant human CD11b A domain (Cys128 to Glu321), expressed as GST fusion protein, used as such or after thrombin cleavage
- binding of the A domain to fibrinogen [1]: binds
- effect of fluid-phase protein on biotinylated rNIF binding to immobilized r11bA ([2]; dose dependent): abolished
- IC50 ([2]; fluid-phase protein, read-out: half-maximal inhibition of biotinylated rNIF binding to immobilized r11bA): ~1 nM
